Measured values: the supplement of paper PMC5998384

Key:
HeLa Kyoto [1] = assay: solubility in G1/S (NP-40 vs SDS abundance) (log2 ratio); higher = more soluble; conditions: cell cycle stage: G1/S
HeLa Kyoto [2] = assay: solubility change mitosis vs G1/S (difference of NP-40 vs SDS log2 ratios) (log2 ratio difference); higher = more soluble in mitosis
HeLa Kyoto [3] = assay: thermal stability score vs G1/S (z-score of summed log2 fold changes over temperatures); higher = more thermally stable than in G1/S
HeLa Kyoto [4] = assay: melting temperature (median over replicates), in situ; higher = more thermally stable
[5] = cell cycle stage: early G1 (4.5 h after nocodazole release)
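Wherever melting temperature (median over replicates), in situ is given: HeLa Kyoto cells synchronized by double thymidine or nocodazole block, proteins quantified by TMT10plex mass spectrometry, three independent biological replicates.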
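Wherever solubility change mitosis vs G1/S (difference of NP-40 vs SDS log2 ratios) is given: synchronized HeLa Kyoto cells (double thymidine block for G1/S, nocodazole release for mitosis), protein amounts in NP-40 versus SDS lysates quantified by mass spectrometry, three biological replicates.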
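Wherever solubility in G1/S (NP-40 vs SDS abundance) is given: HeLa Kyoto cells arrested at G1/S by double thymidine block, proteins quantified by TMT10plex mass spectrometry in mild NP-40 versus SDS extracts, three biological replicates.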
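Wherever thermal stability score vs G1/S (z-score of summed log2 fold changes over temperatures) is given: synchronized HeLa Kyoto cells, proteins quantified by TMT10plex mass spectrometry, three biological replicates, mitosis taken 0.5 h after nocodazole release, G1/S directly after double thymidine block.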

Row | Sequence | solubility in G1/S (log2) (HeLa Kyoto [1]) | solubility change mitosis (log2) (HeLa Kyoto [2]) | thermal stability score (HeLa Kyoto [3]; [5]) | thermal stability score (HeLa Kyoto [3]; cell cycle stage: mitosis) | melting temperature (HeLa Kyoto [4]; cell cycle stage: G1/S) | melting temperature (HeLa Kyoto [4]; cell cycle stage: mitosis)
1 | MGDMTNSDFYSKNQRNESSHGGEFGCTMEELRSLMELRGTEAVVKIKETYGDTEAICRRLKTSPVEGLPGTAPDLEKRKQIFGQNFIPPKKPKTFLQLVWEALQDVTLIILEIAAIISLGLSFYHPPGEGNEGCATAQGGAEDEGEAEAGWIEGAAILLSVICVVLVTAFNDWSKEKQFRGLQSRIEQEQKFTVVRAGQVVQIPVAEIVVGDIAQVKYGDLLPADGLFIQGNDLKIDESSLTGESDQVRKSVDKDPMLLSGTHVMEGSGRMLVTAVGVNSQTGIIFTLLGAGGEEEEKKDKKGVKKGDGLQLPAADGAAASNAADSANASLVNGKMQDGNVDASQSKAKQQDGAAAMEMQPLKSAEGGDADDRKKASMHKKEKSVLQGKLTKLAVQIGKAGLVMSAITVIILVLYFTVDTFVVNKKPWLPECTPVYVQYFVKFFIIGVTVLVVAVPEGLPLAVTISLAYSVKKMMKDNNLVRHLDACETMGNATAICSDKTGTLTTNRMTVVQAYVGDVHYKEIPDPSSINTKTMELLINAIAINSAYTTKILPPEKEGALPRQVGNKTECGLLGFVLDLKQDYEPVRSQMPEEKLYKVYTFNSVRKSMSTVIKLPDESFRMYSKGASEIVLKKCCKILNGAGEPRVFRPRDRDEMVKKVIEPMACDGLRTICVAYRDFPSSPEPDWDNENDILNELTCICVVGIEDPVRPEVPEAIRKCQRAGITVRMVTGDNINTARAIAIKCGIIHPGEDFLCLEGKEFNRRIRNEKGEIEQERIDKIWPKLRVLARSSPTDKHTLVKGIIDSTHTEQRQVVAVTGDGTNDGPALKKADVGFAMGIAGTDVAKEASDIILTDDNFSSIVKAVMWGRNVYDSISKFLQFQLTVNVVAVIVAFTGACITQDSPLKAVQMLWVNLIMDTFASLALATEPPTETLLLRKPYGRNKPLISRTMMKNILGHAVYQLALIFTLLFVGEKMFQIDSGRNAPLHSPPSEHYTIIFNTFVMMQLFNEINARKIHGERNVFDGIFRNPIFCTIVLGTFAIQIVIVQFGGKPFSCSPLQLDQWMWCIFIGLGELVWGQVIATIPTSRLKFLKEAGRLTQKEEIPEEELNEDVEEIDHAERELRRGQILWFRGLNRIQTQIRVVKAFRSSLYEGLEKPESRTSIHNFMAHPEFRIEDSQPHIPLIDDTDLEEDAALKQNSSPPSSLNKNNSAIDSGINLTTDTSKSATSSSPGSPIHSLETSL [ATP2B2] | -0.538 | -0.123 | -1.72 | -2.96 | 54.2 °C | 53.6 °C
2 | MGDREQLLQRARLAEQAERYDDMASAMKAVTELNEPLSNEDRNLLSVAYKNVVGARRSSWRVISSIEQKTMADGNEKKLEKVKAYREKIEKELETVCNDVLSLLDKFLIKNCNDFQYESKVFYLKMKGDYYRYLAEVASGEKKNSVVEASEAAYKEAFEISKEQMQPTHPIRLGLALNFSVFYYEIQNAPEQACLLAKQAFDDAIAELDTLNEDSYKDSTLIMQLLRDNLTLWTSDQQDEEAGEGN [YWHAH] | 0.565 | 0.0669 | -1.65 | -1.58 | 52.5 °C | 52.6 °C
3 | MGDSDDEYDRRRRDKFRRERSDYDRSRERDERRRGDDWNDREWDRGRERRSRGEYRDYDRNRRERFSPPRHELSPPQKRMRRDWDEHSSDPYHSGYEMPYAGGGGGPTYGPPQPWGHPDVHIMQHHVLPIQARLGSIAEIDLGVPPPVMKTFKEFLLSLDDSVDETEAVKRYNDYKLDFRRQQMQDFFLAHKDEEWFRSKYHPDEVGKRRQEARGALQNRLRVFLSLMETGWFDNLLLDIDKADAIVKMLDAAVIKMEGGTENDLRILEQEEEEEQAGKPGEPSKKEEGRAGAGLGDGERKTNDKDEKKEDGKQAENDSSNDDKTKKSEGDGDKEEKKEDSEKEAKKSSKKRNRKHSGDDSFDEGSVSESESESESGQAEEEKEEAEEALKEKEKPKEEEWEKPKDAAGLECKPRPLHKTCSLFMRNIAPNISRAEIISLCKRYPGFMRVALSEPQPERRFFRRGWVTFDRSVNIKEICWNLQNIRLRECELSPGVNRDLTRRVRNINGITQHKQIVRNDIKLAAKLIHTLDDRTQLWASEPGTPPLPTSLPSQNPILKNITDYLIEEVSAEEEELLGSSGGAPPEEPPKEGNPAEINVERDEKLIKVLDKLLLYLRIVHSLDYYNTCEYPNEDEMPNRCGIIHVRGPMPPNRISHGEVLEWQKTFEEKLTPLLSVRESLSEEEAQKMGRKDPEQEVEKFVTSNTQELGKDKWLCPLSGKKFKGPEFVRKHIFNKHAEKIEEVKKEVAFFNNFLTDAKRPALPEIKPAQPPGPAQILPPGLTPGLPYPHQTPQGLMPYGQPRPPILGYGAGAVRPAVPTGGPPYPHAPYGAGRGNYDAFRGQGGYPGKPRNRMVRGDPRAIVEYRDLDAPDDVDFF [SRRT] | -0.305 | 0.214 | 2.79 | 6.86 | 48.2 °C | 49.1 °C
4 | MGDTSEDASIHRLEGTDLDCQVGGLICKSKSAASEQHVFKAPAPRPSLLGLDLLASLKRREREEKDDGEDKKKSKVSSYKDWEESKDDQKDAEEEGGDQAGQNIRKDRHYRSARVETPSHPGGVSEEFWERSRQRERERREHGVYASSKEEKDWKKEKSRDRDYDRKRDRDERDRSRHSSRSERDGGSERSSRRNEPESPRHRPKDAATPSRSTWEEEDSGYGSSRRSQWESPSPTPSYRDSERSHRLSTRDRDRSVRGKYSDDTPLPTPSYKYNEWADDRRHLGSTPRLSRGRGRREEGEEGISFDTEEERQQWEDDQRQADRDWYMMDEGYDEFHNPLAYSSEDYVRRREQHLHKQKQKRISAQRRQINEDNERWETNRMLTSGVVHRLEVDEDFEEDNAAKVHLMVHNLVPPFLDGRIVFTKQPEPVIPVKDATSDLAIIARKGSQTVRKHREQKERKKAQHKHWELAGTKLGDIMGVKKEEEPDKAVTEDGKVDYRTEQKFADHMKRKSEASSEFAKKKSILEQRQYLPIFAVQQELLTIIRDNSIVIVVGETGSGKTTQLTQYLHEDGYTDYGMIGCTQPRRVAAMSVAKRVSEEMGGNLGEEVGYAIRFEDCTSENTLIKYMTDGILLRESLREADLDHYSAIIMDEAHERSLNTDVLFGLLREVVARRSDLKLIVTSATMDAEKFAAFFGNVPIFHIPGRTFPVDILFSKTPQEDYVEAAVKQSLQVHLSGAPGDILIFMPGQEDIEVTSDQIVEHLEELENAPALAVLPIYSQLPSDLQAKIFQKAPDGVRKCIVATNIAETSLTVDGIMFVIDSGYCKLKVFNPRIGMDALQIYPISQANANQRSGRAGRTGPGQCFRLYTQSAYKNELLTTTVPEIQRTNLANVVLLLKSLGVQDLLQFHFMDPPPEDNMLNSMYQLWILGALDNTGGLTSTGRLMVEFPLDPALSKMLIVSCDMGCSSEILLIVSMLSVPAIFYRPKGREEESDQIREKFAVPESDHLTYLNVYLQWKNNNYSTIWCNDHFIHAKAMRKVREVRAQLKDIMVQQRMSLASCGTDWDIVRKCICAAYFHQAAKLKGIGEYVNIRTGMPCHLHPTSSLFGMGYTPDYIVYHELVMTTKEYMQCVTAVDGEWLAELGPMFYSVKQAGKSRQENRRRAKEEASAMEEEMALAEEQLRARRQEQEKRSPLGSVRSTKIYTPGRKEQGEPMTPRRTPARFGL [DHX38] | -0.327 | 0.0419 | 0.477 | 0.888 | 50.8 °C | 52 °C
